Experimental findings from patent US20230002798A1, “PROCESS FOR THE PREPARATION OF A FERMENTABLE SUGAR COMPOSITION AND THE FERMENTATION THEREOF” (WeissBioTech GmbH, priority 2019, published 2023) are described below.

This data set is classed as biochemical. Particulars: pH 5. The protocol:
For activity measurements, the enzyme Agl1 was incubated with 10 mM and 50 mM panose, isomaltose, isomaltotriose, maltose, maltotriose, and trehalose for 10 min at 37° C. in Britton-Robertson buffer, pH 5. The enzyme Gth was incubated with 15 mM panose, 10 and 50 mM isomaltose, and 10, 50 and 100 mM maltotriose and trehalose for 10 min at 37° C. in Britton-Robertson buffer, pH 5. The reaction was stopped with 60 μL of 1 M NaOH, followed by addition of 60 μL of 1 M HCL. The amount of produced glucose was quantified using a standardized glucose assay kit (D-Glucose HK Assay Kit, Megazyme u.c. IRE). Glucose concentration was determined as specified in the instructions. Units are defined as the amount of enzyme required to produce one μmol of glucose per minute.

B1: Agl1: oligo-1,6-glucosidase of Bifidobacterium breve UCC2003, amino acid sequence SEQ ID NO:1, expressed in Bacillus subtilis (protein)
chain: MMTTFNRAIIPDAIRTNGATPNPWWSNAVVYQIYPRSFQDTNGDGFGDLKGITSRLDYLADLGVDVLWLSPVYKSPQDDNGYDISDYQDIDPLFGTLDDMDELLAEAHKRGLKVVMDLVVNHTSDEHAWFEASKNKDDEHADWYWWRPARPGTTPGEPGSEPNQWGSYFGGSAWEYCPERGEYYLHQFSKKQPDLNWENPAVRRAVYDMMNWWLDRGIDGFRMDVITLISKRTDANGRLPGEYGSELDDLPVGEEGYSNPNPFCADGPRQDEFLKEMRREVFAGREGFLTVGEAPGITPVRNEHITNPANGELDMLFLFDHVDFDCDGVKWKPLPLDLPGFKRIMAGYQTAVENVGWASLFTGNHDQPRVVSRWGDDSSEESRVRSAKALGLMLHMHRGTPYVYQGEELGMTNAHFTSLDQYRDLESLNAYRQRVEEAKVQSPESMLAGIAARGRDNSRTPMQWDGSAYAGFTAPDAATEPWISVNPNHAEINAAGEFDDPDSVYAFYKKLIALRHNSSIVAAGEWQLIDADDAHVYAFTRTLGNERLLVVVNLSGRTVDLPRESTELIAGGVTEPDIILSTYDAPHTVVSLANRELDPWEAAAVQL
modifications: Bifidobacterium breve UCC2003; ACM89182.1 alpha-glucosidase 1
With B1, the “substrate degradation (activity on trehalose)” value is reported as “breaks down trehalose”.
